Assay results taken from paper doi:10.1101/2021.01.25.428185 (bioRxiv, 2021).
Residue numbers refer to the chain shown, from its start.

Assays:
[1] = molecular target: T1, GST-Rab11A(CA), mouse Rab11A(Q70L), GTPγS-loaded (mouse, UniProt P62492 1-216, Q70L); test: pull-down
T1 sequence (looked up): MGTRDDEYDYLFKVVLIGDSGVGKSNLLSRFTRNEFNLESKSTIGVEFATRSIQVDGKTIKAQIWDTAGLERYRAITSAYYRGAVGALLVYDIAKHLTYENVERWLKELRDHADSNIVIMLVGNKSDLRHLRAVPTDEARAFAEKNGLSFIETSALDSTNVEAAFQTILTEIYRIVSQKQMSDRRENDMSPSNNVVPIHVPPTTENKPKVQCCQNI

[2] = molecular target: T2, GST-Rab11A(CN), mouse Rab11A(N124I), GDP-loaded (mouse, UniProt P62492 1-216, N124I); test: pull-down
T2 sequence (looked up): T1 sequence (looked up) with L70Q, N124I

- binding result [1]: binds
- binding result [2]: binds
B1: T7-tagged Rab11-FIP2-C (domain or fragment, mouse, UniProt G3XA57 389-512, looked up)
chain: PSAFSENRQDYFEYESTNPFTAKFRASTIMPSSSFHVNPTSSEDLRKIPDNNPFDATAGYRSLTYEEVLQELVKHKELLRRKDTHIRELEDYIDNLLVRVMEETPSILRVPYEPSRKAGKFTNS
